This data set deals with the molecule itself. Nature of the data set: cryo-electron tomography with subtomogram averaging.

Experimental findings from publication doi:10.1101/2024.05.29.596243 (bioRxiv, 2024) are described below.

B1: H+-ATPase Pma1 (natural protein, UniProt Q6FXU5 1-902, looked up)
chain: MSDVESNNEKPPQDVYEDEEMSEDDDIDALIEELQSHHGMGDDDDSEDEGHHTGSARVVPEEYLQTDPSYGLTSDEVAHRRKKYGLNQMADERESMIVKFVMFFVGPIQFVMEAAAILAAGLSDWVDFGVICGLLMLNACVGFIQEFQAGSIVDELKKTLANVAVVIRDGQLVEVPANEVVPGDILQLEDGTIIPADGRLVTENCFLQVDQSAITGESLAVDKGYGDQTFSSSTVKRGEAFMVVTATGDNTFVGRAAALVNKASGGQGHFTEVLNGIGILLLVLVIVTLLGVWAACFYRTDNIVKILRFTLGITIIGVPVGLPAVVTTTMAVGAAYLAKKQAIVQKLSAIESLAGVEILCSDKTGTLTKNKLSLHEPYTVEGVSADDLMLTACLAASRKKKGLDAIDKAFLKSLINYPKAKDALTKYKVIEFHPFDPVSKKVTAVVESPEGERIVCVKGAPLFVLKTVEEDHPIPEDVHENYENKVAELASRGFRALGVARKRGEGHWEILGVMPCMDPPRDDTAETVNEARRLGLRVKMLTGDAVGIAKETCRQLGLGTNIYNAERLGLGGGGDMPGSELADFVENADGFAEVFPQHKYKVVEILQNRGYLVAMTGDGVNDAPSLKKADTGIAVEGASDAARSAADIVFLAPGLSAIIDALKTSRQIFHRMYSYVVYRIALSLHLELFLGLWIIILNHSLDIELIVFIAIFADVATLAIAYDNAPFSQTPVKWNLPRLWGMSIILGIVLAIGTWICLTTMFLPRGGIIQNFGSIDGVLFLQISLTENWLIFVTRAVGPFWSSIPSWQLAGAVFAVDIIATMFTLFGWFSQNWTDIVTVVKIYIWSIGVFCVLGGFYYIMSESVVFDRLMNGKPLKEEKSTRSVEDFLAAMQRVSTQHEKEN
The stoichiometry N is the number of molecules, sites or subunits per partner or assembly. With B1, the “stoichiometry N” value was determined as 6.
